Data on 2 molecules can be found in paper PMC5578167.

The target of experiment [1] is viral CC chemokine inhibitor (vCCI), rabbitpox virus (rabbitpox virus). Nature of the experiment: ITC.
For experiment [2], the target named is viral CC chemokine inhibitor (vCCI), rabbitpox, produced and refolded from E. coli (rabbitpox virus). Nature of the experiment: ITC. On the technique in general: Isothermal titration calorimetry measures the heat released or taken up as one component is titrated into another.

B1: viral Macrophage Inflammatory Protein-II (vMIP-II), human herpesvirus 8 (natural protein)
chain: GDTLGASWHRPDKCCLGYQKRPLPQVLLSSWYPTSQLCSKPGVIFLTKRGRQVCADKSKDWVKKLMQQLPVTAR
As for B1, the stoichiometry N (in general, the number of molecules, sites or subunits per partner or assembly) in experiment [1] worked out at 0.759.

B2: viral Macrophage Inflammatory Protein-II (vMIP-II) (natural protein)
chain: GDTLGASWHRPDKCCLGYQKRPLPQVLLSSWYPTSQLCSKPGVIFLTKRGRQVCADKSKDWVKKLMQQLPVTAR
As for B2, the Kd (commonly the constant that tells how readily two partners part at equilibrium) in experiment [2] is under 0.1 nM.
